Measured values as given in patent publication US20200239586A1 (LA TROBE UNIVERSITY, published 2020).
Each block holds one binder with its values, some of them ahead of it.

Legend:
[1] = target: phage expressed hFn14 mutant S54A (human, UniProt Q9NP84 28-77); assay: phage ELISA, mAb coated (Method 2)
Procedure: (§1) The wells of Maxisorp immunoplates (Nunc) were coated overnight at 4° C. with the target monoclonal antibodies or recombinant Tweak-Fc at a concentration of 1.5 μg/ml in PBS. mAb 5G8 was used as a negative control for ELISA plates coated with tested antibodies. […] 10-fold serial dilutions of phage were made using PBS solution and phage dilutions were added to the coated, blocked ELISA plates for 1 hour, shaking at room temperature. Phage was subsequently removed from the wells and the ELISA plates were washed three times with PBS/0.05% Tween 20.
Method A: HRP-conjugated anti-M13-phage antibody (GE Healthcare) at a 1/5000 dilution in PBS was then added to the wells of the ELISA plates for 1 hour, shaking at room temperature. The antibody solution was then removed from the wells and the ELISA plates were washed four times with PBS/0.05% Tween 20. Method B: Biotin-conjugated anti-M13-phage antibody (GE Healthcare) diluted in PBS was then added to the wells of the ELISA plates for 1 hour shaking at room temperature. The antibody solution was then removed from the wells and the ELISA plates were washed three times with PBS/0.05% Tween 20. HRP-conjugated Streptavidin diluted in PBS was then added to the wells of the ELISA plates for 1 hour, shaking at room temperature. […] Optical density at 450 nm was quantified using a Spectramax absorbance spectrophotometer.

[2] = target: T1, His tagged hFn14 extracellular region mutant R56A (human, UniProt Q9NP84 28-77); assay: ELISA with purified His-tagged hFn14 R56A; x axis 'Log (c)' without unit, µg/ml by the legend
T1 construct: not shown: (His)6 tag
T1 sequence (Q9NP84 28-77 R56A): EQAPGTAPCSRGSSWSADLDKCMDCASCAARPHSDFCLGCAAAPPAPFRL

[3] = target: phage expressed hFn14 mutant D51A (human, UniProt Q9NP84 28-77); assay: phage ELISA (Method 2): antibody coated on the plate, 10-fold dilutions of phage displaying hFn14 D51A; biotin anti-M13 antibody, streptavidin-HRP, TMB, OD 450 nm; x axis = dilution of phage
Chain of phage expressed hFn14 mutant D51A (Q9NP84 28-77 D51A): as the sequence (Q9NP84 28-77 R56A) above, with D24A, A29R counted along it
Text: (§2) ELISAs showing the reactivity of mutant hFn14 phage constructs with the anti-Fn14 monoclonal antibodies CRCBT-06-001, CRCBT-06-002, CRCBT-06-004 compared to ITEM-1 and ITEM-4. Binding was detected using Biotin-conjugated anti-M13-phage monoclonal antibody followed by HRP-conjugated Streptavidin and TMB substrate. Optical density at 450 nm was quantified using a Spectramax spectrophotometer. Error bars for each dilution represent the standard deviation of duplicate assays. FIG. 28A L46A, FIG. 28B D51A and FIG. 28C D62A. In all cases error bars represent the standard deviation. X axis=dilution of phage. Methods according to Epitope mapping using phage expressed Fn14—Method 2.
as §1, with “Phage was subsequently removed from the wells and the ELISA plates were washed three times with PBS/0.05% Tween 20.” left out
(§3) Method A: HRP-conjugated anti-M13-phage antibody (GE Healthcare) at a 1/5000 dilution in PBS was then added to the wells of the ELISA plates for 1 hour, shaking at room temperature. […] Optical density at 450 nm was quantified using a Spectramax absorbance spectrophotometer.

[4] = target: T2, Histidine tagged mouse Fn14 extracellular domain (mouse, UniProt Q9CR75 28-80); assay: ELISA with purified His-tagged mouse Fn14; x axis 'Log (c)' without unit, µg/ml by the legend
T2 construct: extracellular domain; also called mFn14; not shown: (His)6 tag from pET-15b
T2 sequence (looked up): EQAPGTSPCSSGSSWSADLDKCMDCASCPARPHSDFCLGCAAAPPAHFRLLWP

[5] = target: phage expressed hFn14 mutant H60K (human, UniProt Q9NP84 28-77); assay: phage ELISA (Method 2): antibody coated on the plate, 10-fold dilutions of phage displaying hFn14 H60K; biotin anti-M13 antibody, streptavidin-HRP, TMB, OD 450 nm; x axis = dilution of phage
Chain of phage expressed hFn14 mutant H60K (Q9NP84 28-77 H60K): as the sequence (Q9NP84 28-77 R56A) above, with A29R, H33K counted along it
Procedure: as §2, with “mutant H60A and H60K” for “mutant”, “ITEM-4. ITEM-2 was assessed on H60K.” for “ITEM-4.”, “assays.” for “assays. FIG. 28A L46A, FIG. 28B D51A and FIG. 28C D62A. In all cases error bars represent the standard deviation.”
as §1
Method A: HRP-conjugated anti-M13-phage antibody (GE Healthcare) at a 1/5000 dilution in PBS was then added to the wells of the ELISA plates for 1 hour, shaking at room temperature. […]

[6] = target: phage expressed hFn14 mutant L46A (human, UniProt Q9NP84 28-77); assay: phage ELISA (Method 2): antibody coated on the plate, 10-fold dilutions of phage displaying hFn14 L46A; biotin anti-M13 antibody, streptavidin-HRP, TMB, OD 450 nm; x axis = dilution of phage
Chain of phage expressed hFn14 mutant L46A (Q9NP84 28-77 L46A): as the sequence (Q9NP84 28-77 R56A) above, with L19A, A29R counted along it
Text: as §2
as §1, with “Phage was subsequently removed from the wells and the ELISA plates were washed three times with PBS/0.05% Tween 20.” left out
as §3

human Fn14 = target: T3, human Fn14 (human, UniProt Q9NP84 28-129); assay: cell-based or functional assay
T3 sequence: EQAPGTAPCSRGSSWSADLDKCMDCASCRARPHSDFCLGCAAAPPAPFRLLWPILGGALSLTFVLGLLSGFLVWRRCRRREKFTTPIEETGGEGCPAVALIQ

[7] = target: T4, synthetic peptide Sub-domain 2 Cys 3&6 ΔS (human, not fully specified; biotin on the added C-terminal lysine); assay: peptide ELISA: biotinylated synthetic peptide on neutravidin plate, antibody titrated (legend: 0.1-0.0001 µg/ml; axis 'Log (c)'), anti-mouse HRP, TMB, OD 450 nm
T4 construct: also called sub-domain 2 cys3&6ΔS mutant
T4 peptide: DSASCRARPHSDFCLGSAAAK

Chain of phage expressed hFn14 mutant S54A (Q9NP84 28-77 S54A): as the sequence (Q9NP84 28-77 R56A) above, with S27A, A29R counted along it

binding result [1]: binds | binding result [2]: binds | binding result [3]: binds | binding result [4]: binds | binding result [5]: binds | binding result [6]: binds | NFκB-GFP reporter in HEK293T cells (human Fn14): 100 ng/mL | binding result [7]: binds
B1: CRCBT-06-002 (antibody, IgG1, V domains shown)
VH: EVKLQQSGGGLVQPGGSMKLSCVASGFTFSYYWMNWVRQSPEQGLEWIAEIRLQSNDYPTHYAESVKGRFTISRDDSKNSVYLQMNNLRPEDTGIYYCACRYADYFDHWGQGTTLTVSS
VL: DTVLTQSPASLVVSLGQRATISCRASQSVSTSDYSYIHWYQQKPGQPPKFLIKYASNRDSGVPARFSGSGSGTDFTLNIHPVEEDDTAIYYCQHSWEIPPTFGAGTKLELQR

binding result [1]: binds | binding result [2]: binds | binding result [3]: binds | binding result [4]: binds | binding result [5]: binds | binding result [6]: binds | NFκB-GFP reporter in HEK293T cells (human Fn14): 1000 ng/mL | binding result [7]: binds
B2: CRCBT-06-001 (antibody, IgG2b, V domains shown)
VH: QVQLQQSGGGLVQPGGSMKLSCIASGFTFSSYWMSWVRQSPEKGLEWVAEIRSKSDNYATHYAESVKGKFTISRDDSKSRFFLQMNNLRAEDTGIYYCSSTYADYFHYWGQGTDLTVSS
VL: DIVMTQTPASLAVSLGQRATISCRASQSVSTSTYSYMHWYQQKPGQPPKLLIKYASSLESGVPARFSGSGSGTDFTLNIHPVEEDDTATYYCQHSWEIPYTFGGGTKLEIKR
